Measurements: patent publication US20220112291A1 (Pfizer, published 2022)
Positions count from the first letter of the chain named. Names may count otherwise.

B1: Ab138 (antibody, human IgG1, kappa, V domains shown)
VH: EVQLVESGGGLVQPGGSLRLSCAASGFTFTDFYMNWVRQAPGKGLEWVAFIRNKANGYTTESNPSVKGRFTISRDNAKNSLYLQMNSLRAEDTAVYYCARETTGIPTGWFAYWGQGTLVTVSS
VL: DIQMTQSPSSLSASVGDRVTITCLASEDISNDLAWYQQKPGKAPKLLIYGANRLKDGVPSRFSGSGSGTDYTLTISSLQPEDFATYYCQQSYKYPYTFGQGTKLEIKR
notes: Humanized variant of chimeric Ab40; human IgG1 (L234A/L235A/G237A, effector function null) / human kappa; heavy chain can be prepared with or without the terminal lysine; Tb-labeled in the HTRF assay; also called humanized anti-CD1a antibody Ab138; parental Ab138
B2: Ab556 (antibody, human IgG1, kappa, V domains shown)
VH: B1 VH with F32H, N35H, K54S, N56G, S65A, G104R
VL: B1 VL with S30Y, N31F, A51G, N52D, D56E, Y92E, K93S
notes: Optimized variant of Ab138; human IgG1 effector null / kappa; HC with or without terminal lysine
B3: Ab491 (antibody, human IgG1, kappa, V domains shown)
VH: B1 VH with F32H, N35T, S65A
VL: B1 VL with S30Y, N31F, A51G, N52D, D56E, K93S
notes: as for B2
B4: Ab492 (antibody, human IgG1, kappa, V domains shown)
VH: B1 VH with F32H, N35T, S65A
VL: B1 VL with S30Y, N31F, A51G, N52D, D56E, Y92E, K93S
notes: as for B2
B5: Ab504 (antibody, human IgG1, kappa, V domains shown)
VH: B1 VH with F32H, N35H, N56G, S65A
VL: B1 VL with S30Y, N31F, A51G, N52D, Y92E, K93S
notes: as for B2
B6: Ab514 (antibody, human IgG1, kappa, V domains shown)
VH: B1 VH with F32H, N35H, K54S, N56G, S65A, G104R
VL: B1 VL with S30Y, N31F, N52S, R53T, L54P, Y92E
notes: as for B2
B7: Ab555 (antibody, human IgG1, kappa, V domains shown)
VH: B1 VH with F32H, N35H, K54S, N56G, S65A, G104R
VL: B1 VL with S30Y, N31F, A51G, N52D, D56E, K93S
notes: as for B2
B8: Ab559 (antibody, human IgG1, kappa, V domains shown)
VH: B1 VH with F32H, N35H, N56G, S65A, G104T
VL: B1 VL with S30Y, N31F, A51G, N52D, D56E, K93S
notes: as for B2
B9: Ab560 (antibody, human IgG1, kappa, V domains shown)
VH: B1 VH with F32H, N35H, N56G, S65A, G104T
VL: B1 VL with S30Y, N31F, A51G, N52D, D56E, Y92E, K93S
notes: as for B2
B10: Ab572 (antibody, human IgG1, kappa, V domains shown)
VH: B1 VH with F32H, N35T, N56G, S65A
VL: B1 VL with S30Y, N31F, A51G, N52D, D56E, Y92E, K93S
notes: as for B2
B11: Ab579 (antibody, human IgG1, kappa, V domains shown)
VH: B1 VH with F32H, N35T, K54S, N56G, S65A, G104R
VL: B1 VL with S30Y, N31F, A51G, N52D, D56E, K93S
notes: as for B2
B12: Ab585 (antibody, human IgG1, kappa, V domains shown)
VH: B1 VH with F32H, N35H, A49G, F50H, R52S, N53G, K54S, N56G, S65A, G104R
VL: B1 VL with S30Y, N31F, N52S, R53T, L54P, Y92E
notes: as for B2
B13: Ab599 (antibody, human IgG1, kappa, V domains shown)
VH: B1 VH with F32H, N35H, A49G, F50H, R52S, N53G, K54S, N56G, S65A, G104R
VL: B1 VL with S30Y, N31F, A51G, N52D, D56E, Y92E, K93S
notes: as for B2
B14: Ab609 (antibody, human IgG1, kappa, V domains shown)
VH: B1 VH with T30E, F32H, N35H, F50H, I51T, N53D, N56G, S65A, G104R
VL: B1 VL with S30Y, N31F, A51G, N52D, D56E, Y92E, K93S
notes: as for B2
B15: Ab610 (antibody, human IgG1, kappa, V domains shown)
VH: B1 VH with T28D, F32H, N35H, F50H, I51T, N53D, N56G, S65A, G104R
VL: B1 VL with S30Y, N31F, A51G, N52D, D56E, Y92E, K93S
notes: as for B2
B16: Ab616 (antibody, human IgG1, kappa, V domains shown)
VH: EVQLVESGGGLVQPGGSLRLSCAASGFTFEDHYMHWVRQAPGKGLEWVGHISGSAGGYTTESNPAVKGRFTISRDNAKNSLYLQMNSLRAEDTAVYYCARETTRIPTGWFAYWGQGTLVTVSS
VL: B1 VL with S30Y, N31F, A51G, N52D, D56E, K93S
notes: as for B2
B17: Ab623 (antibody, human IgG1, kappa, V domains shown)
VH: B16 VH with G49A, I51T, S52R, G53D, S54K
VL: B1 VL with S30Y, N31F, A51G, N52D, D56E, K93S
notes: as for B2
B18: Ab624 (antibody, human IgG1, kappa, V domains shown)
VH: B16 VH with T28D, E30T, G49A, I51T, S52R, G53D, S54K
VL: B1 VL with S30Y, N31F, A51G, N52D, D56E, K93S
notes: as for B2
B19: Ab656 (antibody, human IgG1, kappa, V domains shown)
VH: B16 VH with T28D, E30T, G49A, I51T, S52R, G53D, S54K
VL: B1 VL with S30Y, N31F, A51G, N52D, K55Q, D56E, K93S
notes: as for B2
B20: Ab657 (antibody, human IgG1, kappa, V domains shown)
VH: B16 VH with E30T, G49A, I51T, S52R, G53D, S54K
VL: B1 VL with S30Y, N31F, N52S, R53T, L54P, Y92E
notes: as for B2
B21: Ab660 (antibody, human IgG1, kappa, V domains shown)
VH: B16 VH with E30T, S52R, G53N, S54A
VL: B1 VL with S30Y, N31F, N52S, R53T, L54P, Y92E
notes: as for B2
B22: Ab673 (antibody, human IgG1, kappa, V domains shown)
VH: B16 VH with E30T, G49A, I51T, S52R, G53D, S54K
VL: B1 VL with S30Y, N31F, A51G, N52D, D56E, K93S
notes: as for B2
B23: Ab681 (antibody, human IgG1, kappa, V domains shown)
VH: B16 VH with E30T, G49A, I51T, S52R, G53D, S54K
VL: B1 VL with S30Y, N31F, A51G, N52D, K55Q, D56E, Y92E, K93S
notes: as for B2
B24: Ab689 (antibody, human IgG1, kappa, V domains shown)
VH: B16 VH with E30T, G49A, I51T, S52R, G53D, S54K
VL: B1 VL with S30Y, N31F, A51G, N52D, K55Q, D56E, K93S
notes: as for B2

Assays:
[1] = biological target: T1, human single-chain CD1a-β2M recombinant protein (Human B2M-CD1a ECD-Avi-His6) (human); experiment: competition ELISA on plate-coated CD1a protein; competitor: biotinylated parental chimeric Ab40 at a fixed concentration; streptavidin-HRP, OD450
T1 construct: Biotinylated in the HTRF, phage selection and Gyrolab assays; also called human CD1a; CD1a protein
Experimental: For competition ELISA, high-binding Costar ELISA plates were coated with 0.1 μg per well (100 μL of 1 μg/mL) CD1a protein in PBS buffer overnight at 4° C. Plates were then washed and blocked for 3 hours with PBS+3% bovine serum albumin (BSA) at room temperature. […] After 2 hours incubation, plates were washed and incubated for 1 hour with streptavidin-HRP secondary reagent. After washing, plates were incubated with one-component HRP substrate and the developed color measured at 450 nm using Envision plate reader (Perkin Elmer).

[2] = biological target: T1, human single-chain CD1a-β2M recombinant …; experiment: SPR (Biacore), IgG; antigen taken as human CD1a
[3] = biological target: human CD1a expressed on cells (human, UniProt P06126 17-327); experiment: cell-based or functional assay
human CD1a expressed on cells, sequence (P06126 17-327): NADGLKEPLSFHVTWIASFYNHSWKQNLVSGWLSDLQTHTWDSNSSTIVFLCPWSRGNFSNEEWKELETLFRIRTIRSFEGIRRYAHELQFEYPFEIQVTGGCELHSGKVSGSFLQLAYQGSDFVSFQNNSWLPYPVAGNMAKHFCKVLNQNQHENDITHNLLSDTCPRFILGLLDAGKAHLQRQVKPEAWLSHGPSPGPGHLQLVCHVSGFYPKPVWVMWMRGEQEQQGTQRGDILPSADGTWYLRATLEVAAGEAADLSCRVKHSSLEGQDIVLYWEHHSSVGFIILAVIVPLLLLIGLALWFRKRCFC

T1 sequence (chain, as listed by the source limits assumed): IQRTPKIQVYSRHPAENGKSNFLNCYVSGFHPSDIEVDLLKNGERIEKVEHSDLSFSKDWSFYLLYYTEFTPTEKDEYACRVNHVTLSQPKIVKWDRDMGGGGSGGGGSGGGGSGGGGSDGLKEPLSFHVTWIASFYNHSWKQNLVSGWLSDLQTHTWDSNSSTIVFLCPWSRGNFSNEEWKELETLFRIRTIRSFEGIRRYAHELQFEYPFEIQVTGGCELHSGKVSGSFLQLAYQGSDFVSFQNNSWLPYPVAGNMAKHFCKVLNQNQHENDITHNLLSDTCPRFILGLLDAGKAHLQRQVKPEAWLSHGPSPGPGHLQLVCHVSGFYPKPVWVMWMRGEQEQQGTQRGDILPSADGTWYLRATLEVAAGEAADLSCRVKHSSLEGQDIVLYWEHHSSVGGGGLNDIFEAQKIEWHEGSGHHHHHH

Binder	IC50 [1] [nM]	Kd [2] [nM]	Inhibition of CD69 expression, IC50 [3] [nM]	Inhibition of IL-2 production, IC50 [3] [nM]
B1	1.94	3.87	1.97	–
B2	–	0.1	0.73	–
B3	–	0.62	1.18	–
B4	–	0.77	1.18	–
B5	–	0.53	1.69	–
B6	–	0.28	0.99	–
B7	–	0.27	0.99	–
B8	–	0.39	1.29	–
B9	–	0.35	1.61	–
B10	–	0.39	0.85	–
B11	–	0.27	0.73	–
B12	–	0.32	0.38	0.14
B13	–	0.52	0.3	0.08
B14	–	0.56	0.39	0.12
B15	–	0.21	0.44	0.09
B16	–	0.46	0.41	0.11
B17	–	0.56	0.35	0.17
B18	–	1.3	0.35	0.17
B19	–	0.54	0.48	0.22
B20	–	0.41	0.51	0.19
B21	–	0.57	0.33	0.15
B22	–	0.21	0.3	0.18
B23	–	1.22	0.42	0.12
B24	–	3.59	0.41	0.17
